Experimental data: patent US9888679B2, “Protection of progenitor cells and regulation of their differentiation” (Proteobioactives Pty Ltd, priority 2007, dated 2018)
“Also recorded” adds a separate entry of the source.

Experiments:
Murine ATDC5 cell line = assay: Proteoglycan biosynthesis (35S-GAG) in pellet cultures; assay type: cell-based; conditions: pellet cultures, FIG. 22
Excerpt: FIG. 12. A bar graph of the concentration dependent effects of Pentosan Polysulfate (PPS), on the biosynthesis of Proteoglycans (PGs) as determined by the incorporation of radioactively labelled sulfate into the sulfated glycosaminoglycans (^35S-GAG) of PGs in 6 day pellet cultures of murine progenitor cells (ADTC-5). *=p<0.05 relative to control.
FIG. 22. A bar graph of the concentration dependent effects of rhNC4 (batch PBA-1202P) expressed by K. lactis, in the absence (maintenance media, MM) and presence of insulin (10 micrograms/mL) (differentiation media, DM), on the biosynthesis of Proteoglycans PGs) in pellet cultures of ATDC5 cells. Data is shown as the % change relative to controls taken to be 100%.
Murine Progenitor cells (cell lines C3H10T1/2 or ATDC5) purchased from RIKEN Cell Bank (Tsukuba, Japan) or human immunoselected Stro-1+ Progenitor cells (Mesoblast Ltd, Melbourne, Australia) were seeded in 2 ml screw-capped sterile centrifuge tubes and the total volume made-up to 1 ml with DMEM-High glucose medium containing 10% FBS. Progenitor cells were then centrifuged at 500 g for 10 min in a swing-out rotor at room temperature. The screw caps were loosened and the tubes placed in an incubator at 37° C., in a 5% CO2/95% air moist atmosphere. The pellets generally formed within 24 hours. Medium was changed daily in the first two days, then once every 2-3 days thereafter. On day 5 the medium was removed and to each tube was added 1 ml with DMEM-High glucose medium containing 10% FBS, 5.0 μCi/ml ^35S-H2SO4 and various concentrations of PPS (0, 0.1, 0.5, 1.0, 2.5, 5.0, 10.0, 20.0, μg/ml) (FIG. 12-15) or rhNC4 (0, 0.1, 0.5, 1.0, 2.0 μg/ml) (FIG. 22). Triplicate cultures were used for all concentration of drugs. The screw caps were loosened and the tubes placed in an incubator at 37° C., in a 5% CO2/95% moist air atmosphere […]. On day 6, 200 μl of stock papain solution [2.5 mg/ml papain, 7.9 mg/ml L-Cystein in papain buffer (0.1 M NaAC, 5 mM EDTA, pH6.0)] was added to each tube. The tubes were tightly capped and incubated at 65° C. for 2 hours. After papain digestion, 4 replicates of 200 μl of papain digested solution were separately transferred to a 96-well micro-titre plate (200 μl/well). The remaining solution was used for the DNA fluorometric assays which were undertaken in triplicate as described above. Biosynthesis of ^35S-GAGs was determined as described for the monolayer cultures and the results expressed as ^35-S-GAGs/μg DNA.
Data is shown as the % of controls taken to be 100%.

[1] = tested on: murine ATDC5 progenitor cells; assay: Proteoglycan biosynthesis (35S-GAG) in monolayer cultures, maintenance or differentiation media; assay type: cell-based
Excerpt: FIG. 21. A bar graph of the concentration dependent effects of rhNC4 (batch PBA-1202P) expressed by K. lactis, in the absence (maintenance media, MM) and presence of insulin (10 micrograms/mL) (differentiation media, DM), on the biosynthesis of Proteoglycans (PGs) as determined by the incorporation of radioactively labelled sulfate into the sulfated glycosaminoglycans (^35S-GAG) of PGs after 3 day culture with Murine ATDC5 progenitor cells. The data was expressed as % change relative to control cultures that contained no rhNC4. P<0.05 was statistically significant relative to control cultures.
FIG. 24. A bar graph of the concentration dependent effects of combinations of rhNC4 (batch PBA-1202P) and Pentosan Polysulfate (PPS) on the biosynthesis of 35S-PGs by monolayer cultures of Murine ATDC5 progenitor cells. Data is expressed relative to control (maintenance media, MM) which was taken as 100%.
FIG. 31. A bar graph of the concentration dependent effects of rhNC4 (batch PBA-1202P) expressed by K. lactis, in the absence (maintenance media, MM) and presence of insulin (10 micrograms/mL) (differentiation media, DM), on the biosynthesis of Proteoglycans (PGs) as determined by the incorporation of radioactively labelled sulfate into the sulfated glycosaminoglycans (^35S-GAG) of PGs after 3 day culture with Murine ATDC5 progenitor cells. The data was expressed as % change relative to control cultures that contained no rhNC4. P<0.05 was statistically significant relative to control cultures.
FIG. 32. A bar graph of the concentration dependent effects of Pentosan Polysulfate (PPS), in the presence of insulin (10 micrograms/mL), on the biosynthesis of Proteoglycans PGs) as determined by the incorporation of radioactively labelled sulfate into the sulfated glycosaminoglycans (^35S-GAG) of PGs after 3 day culture with Murine ATDC5 progenitor cells. The data was expressed as ^35S-GAG radioactivity as counts per minute (CPM) and decays per minute (DPM) relative to control cultures that contained no PPS. P<0.05 was statistically significant relative to control cultures.
Murine Progenitor cells (cell lines C3H10T1/2 or ATDC5) purchased from RIKEN Cell Bank (Tsukuba, Japan) or human immunoselected Stro-1+ Progenitor cells (Mesoblast Ltd, Melbourne, Australia) were seeded into 50 mL plastic culture flasks containing 1:1 high glucose DMEM/Ham's F-12 medium (Invitrogen) supplemented with 10% FBS (Sigma) and incubated at 37° C., in 5% CO2. […] The experiments were generally terminated after 48 hours incubation when proteoglycan biosynthesis was determined by measuring the incorporation of ^35SO4 into the glycosaminoglycans (^35S-GAGs) as described below.
The data was expressed as % change relative to control cultures that contained no rhNC4. […]

ATDC5 cell = assay: Kinetics of ATDC5 cell growth over 13 days; assay type: cell-based, murine; conditions: rhNC4 (batch PBA-1200P) 5 ug/ml or Insulin 10 ug/ml; 20,000 cells per well at Day 0; FIG. 30
Procedure: FIG. 30. A bar graph of the kinetics of ATDC5 cell growth induced by rhNC4 (batch PBA-1200P) (5 ug/ml) or Insulin (10 ug/ml) relative to control over 13 days. 20,000 cells per well were seeded at Day 0 (Start) with medium changes every 48 hrs. Insulin treated cultures reached confluence on day 6 and PBA-1200P on day 9. Control cultures also reached confluence on day 9 but in contrast to cultures containing insulin or PBA-1200P ceased to undergo replication.

B1: rhNC4: recombinant human non collagenous NC4 domain of the alpha-1 chain of type IX collagen, expressed by K. lactis (protein, listed as Homo sapiens)
chain: AVKRRPRFPVNSNSNGGNELCPKIRIGQDDLPGFDLISQFQVDKAASRRAIQRVVGSATLQVAYKLGNNVDFRIPTRNLYPSGLPEEYSFLTTFRMTGSTLKKNWNIWQIQDSSGKEQVGIKINGQTQSVVFSYKGLDGSLQTAAFSNLSSLFDSQWHKIMIGVERSSATLFVDCNRIESLPIKPRGPIDIDGFAVLGKLADNPQVSVPFELQWMLIHCDPLRPRRETCHELPARITPSQTTDER
In the case of B1, the “rhNC4 concentration producing the optimum effect on PG synthesis” value (Murine ATDC5 cell line; maintenance media) is reported as 0.5 micrograms/mL, the PG synthesis (Murine ATDC5 cell line; rhNC4) is reported as “stimulatory effect” and the “rhNC4 concentration of maximum effects on PG synthesis” value ([1]; maintenance and differentiation media, FIG. 21) is reported as 1 microgram/mL. The PG synthesis ([1]; rhNC4, absence (maintenance media) and presence of insulin (differentiation media), 3 day culture, FIG. 21/31) was “stimulated PG synthesis; also recorded: concentration dependent stimulation of PG synthesis” and the “day on which cultures reached confluence” value (ATDC5 cell) was 9 days.
